The values below come from article PMC8154056.

The target of this experiment is Gloeobacter violaceus deeply-rooted thioredoxin reductase (GvDTR), renamed ferredoxin flavin-thioredoxin reductase (GvFFTR) (Gloeobacter violaceus) (UniProt Q7NMP6). Nature of the experiment: ITC. On the technique in general: Isothermal titration calorimetry measures the heat released or taken up as one component is titrated into another.

The stoichiometry N is the number of molecules, sites or subunits per partner or assembly. Turning to “Gloeobacter violaceus plant-type [2Fe-2S] ferredoxin 1 (GvFdx1) (natural protein)”, the stoichiometry N stood at 1.
